According to the supplement of paper PMC9732359:
± gives the uncertainty stated by the source.

Assay: protein stability index of a GFP-peptide fusion (yeast GPS) (PSI 1-4); higher = more stable; sorted into four equal gates, so the index is relative within each strain
Summary of the method: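 Yeast carrying a pooled library were grown to mid-log phase in leucine-free medium. Each library plasmid expresses Cherry and has a tiled 17-residue yeast protein peptide fused downstream of GFP. Cells were sorted into four equal gates by GFP/Cherry ratio, and plasmids from each gate were PCR-amplified, Illumina-sequenced and assigned to strains by barcode. Summing, across gates, the read frequency times the gate number gave each peptide's protein stability index.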

Row | Sequence | protein stability index (doa10∆) | protein stability index (pdr5∆) | protein stability index (san1∆) | protein stability index (ubr1∆)
1 | IASEVLIKQVPRLLGPQ [RPL1A] | 2.28 ± 0.13 | 1.87 ± 0.14 | 2.27 ± 0.15 | 1.67 ± 0.068
2 | IATGCKDGRIRIFKITE [YGL100W/SEH1] | 2.22 ± 0.069 | 2.47 ± 0.066 | 2.21 ± 0.094 | 2.43 ± 0.046
3 | ICGYTRKEGPTIYYVDS [PRE2] | 3.36 ± 0.095 | 3.24 ± 0.081 | 3.42 ± 0.042 | 2.84 ± 0.069
4 | ICNPVHKHREARGLTAT [RPL15B] | 2.81 ± 0.078 | 2.52 ± 0.082 | 2.59 ± 0.092 | 2.42 ± 0.062
5 | ICYNKKTEYVLNDLNHL [REC8] | 1.8 ± 0.19 | 1.75 ± 0.091 | 1.68 ± 0.21 | 1.88 ± 0.19
6 | IDATLKEELLRDGVLTV [RRP45] | 1.8 ± 0.047 | 1.92 ± 0.05 | 2 ± 0.081 | 2.04 ± 0.045
7 | IDDKTQNDELTMGMRAL [DIS3] | 2.74 ± 0.083 | 2.83 ± 0.068 | 2.87 ± 0.058 | 3 ± 0.059
8 | IDDVQTIKVVKRSMDAE [RPP1] | 3.18 ± 0.054 | 2.89 ± 0.057 | 3.06 ± 0.039 | 3 ± 0.051
9 | IDHSDESNRQSVIVDSK [ESC2] | 3.18 ± 0.13 | 3.27 ± 0.077 | 3.08 ± 0.093 | 3.51 ± 0.15
10 | IDIPLDEQAFYNKDKAE [RPC37] | 3.27 ± 0.18 | 3.38 ± 0.18 | 2.85 ± 0.24 | 3.26 ± 0.14
11 | IDNGAESSENEAEDDDN [RPC53] | 3.33 ± 0.14 | 3.62 ± 0.17 | 3.15 ± 0.11 | 2.81 ± 0.16
12 | IDWASPEYGRIIASASY [YGL100W/SEH1] | 2.8 ± 0.064 | 3.16 ± 0.053 | 3.09 ± 0.054 | 2.71 ± 0.055
13 | IDYLQRNDKTLELMDSK [POP1] | 3.06 ± 0.096 | 3.19 ± 0.14 | 2.64 ± 0.25 | 3.24 ± 0.14
14 | IECFKPGDIVRAQVLSL [CSL4] | 2.25 ± 0.15 | 2.04 ± 0.17 | 2.04 ± 0.2 | 2.39 ± 0.16
15 | IEDPNLSSNITFDGKPT [YMR153W/NUP53] | 3.02 ± 0.069 | 3.06 ± 0.056 | 3.12 ± 0.043 | 3.17 ± 0.05
16 | IEEKLSSFSKKTLTEEV [YIL149C/MLP2] | 2.92 ± 0.054 | 3.07 ± 0.052 | 3.03 ± 0.052 | 3 ± 0.048
17 | IEEQGDALQDVEESSEK [DPB4] | 3.02 ± 0.12 | 3.46 ± 0.079 | 3.13 ± 0.059 | 3.41 ± 0.075
18 | IEIEDEKVSSVLSALEG [RPP2A] | 2.88 ± 0.037 | 2.29 ± 0.034 | 2.81 ± 0.029 | 2.449 ± 0.024
19 | IEITNSNDLCSQIFDQL [SRB8] | 2.67 ± 0.057 | 2.96 ± 0.074 | 2.69 ± 0.059 | 2.74 ± 0.043
20 | IEKCLKASELKLALGIA [RPN2] | 2.75 ± 0.1 | 3.1 ± 0.13 | 3 ± 0.098 | 2.69 ± 0.24

Row | Sequence | protein stability index (doa10∆) | protein stability index (pdr5∆) | protein stability index (san1∆) | protein stability index (ubr1∆)
21 | IELKTDWVRFLALALGI [RPN1] | 1.38 ± 0.13 | 1.37 ± 0.077 | 1.41 ± 0.12 | 1.13 ± 0.067
22 | IEPQVINYLALNAANYN [ECM29] | 3.37 ± 0.13 | 2.63 ± 0.12 | 2.15 ± 0.24 | 2.33 ± 0.078
23 | IEQSITKNIPITHRDLH [SSN8] | 2.37 ± 0.047 | 2.92 ± 0.041 | 2.53 ± 0.046 | 2.78 ± 0.036
24 | IESNKLAGVLYESRNVA [RRP6] | 2.93 ± 0.062 | 3.11 ± 0.074 | 3.07 ± 0.1 | 3.08 ± 0.062
25 | IESQNLDLIPHSSSVFK [SRB4] | 2.46 ± 0.059 | 2.9 ± 0.053 | 2.55 ± 0.067 | 2.73 ± 0.038
26 | IETLDPALIRPGRIDRK [RPT2] | 2.53 ± 0.26 | 3.18 ± 0.19 | 2.88 ± 0.24 | 3.02 ± 0.2
27 | IFERMIEKCLKASELKL [RPN2] | 2.17 ± 0.15 | 2.21 ± 0.099 |  | 1.85 ± 0.079
28 | IFKDLVTVFLFMLILAL [COB] | 1.45 ± 0.04 | 1.19 ± 0.033 | 1.12 ± 0.067 | 1.17 ± 0.025
29 | IFRGSLIGCIPYSKNAV [YDL088C/ASM4] | 2.18 ± 0.062 | 2.51 ± 0.09 | 2.14 ± 0.13 | 2.19 ± 0.068
30 | IGGRRFSEGTSADREIQ [RPT4] | 2.51 ± 0.085 | 2.59 ± 0.088 | 1.98 ± 0.12 | 2.77 ± 0.19
31 | IGKDTFVTRKSRKRAKK [PRP8] | 3.01 ± 0.092 | 2.84 ± 0.096 | 2.87 ± 0.078 | 3.25 ± 0.049
32 | IGKMYDEYLGSHTDQPA [NNF1] | 3.37 ± 0.16 | 2.9 ± 0.17 |  | 3.28 ± 0.086
33 | IGLVKCTQMTDEGLLNM [GRR1] | 3.01 ± 0.068 | 2.91 ± 0.066 | 2.81 ± 0.057 | 2.91 ± 0.043
34 | IGVVSLTNGVTEHVRQN [RRP6] | 3.29 ± 0.14 | 3.42 ± 0.11 | 3.32 ± 0.099 | 3.33 ± 0.063
35 | IHEIDERLAKVNEMNDQ [NNF1] | 1.37 ± 0.089 | 2.51 ± 0.14 | 1.63 ± 0.12 | 1.96 ± 0.061
36 | IHLLHDDRGPVLESIVA [BRR2] | 2.48 ± 0.089 | 1.78 ± 0.06 | 3.24 ± 0.05 | 2.63 ± 0.11
37 | IHYSWSFILYYRRALQS [YML103C/NUP188] | 1.48 ± 0.064 | 1.09 ± 0.042 | 1.26 ± 0.11 | 1.12 ± 0.082
38 | IIDAKTRNEQTTIQTEK [MCD1] | 3.19 ± 0.093 | 3.23 ± 0.082 | 2.91 ± 0.17 | 3.01 ± 0.06
39 | IIDEIKCIPKKGTVFQF [POP4] | 1.6 ± 0.13 | 1.56 ± 0.074 | 1.86 ± 0.28 | 1.3 ± 0.048
40 | IIEKITDQILQLLKEDS [RRP45] | 2.35 ± 0.11 | 2.5 ± 0.11 | 2.26 ± 0.14 | 2.37 ± 0.13
